In this assay the target is human CD4 on the surface of cells (HeLa-CD4+, C8166, PM1, primary human CD4+ T lymphocytes) (human) (UniProt P01730). Nature of the assay: cell-based or functional assay.

Take “murine MAb OKT4a (anti-CD4 monoclonal antibody, Ortho Diagnostic Systems)”: the % Inhibition of RET, fusion of HeLa-envJR-FL with LW5 primary CD4+ T cells, OKT4A at 3 ug/ml was found to be 100%; the % Inhibition of RET, fusion of HeLa-envLAI with LW5 primary CD4+ T cells, OKT4A at 3 ug/ml is 100%; the % RET, fusion of HeLa-envJR-FL+ with PM1 cells in the presence of OKT4A (0.3 µg/ml) amounted to 0.7 % RET; the % RET, fusion of HeLa-envLAI+ with C8166 cells in the presence of OKT4A (0.3 µg/ml) is 0.6 % RET. In addition, the % RET, fusion of HeLa-envLAI+ with HeLa-CD4+ cells in the presence of OKT4A (0.3 µg/ml) amounted to 0.4 % RET and the % inhibition of RET at 0.2 µg/ml, HeLa-env+ + HeLa-CD4+ cells, cuvette method worked out at 65%.

Substance “HIV-1JR-FL gp120/gp41 expressed on HeLa cells (HeLa-envJR-FL+)” had a % RET, fusion of HeLa-envJR-FL+ with PM1 cells, no inhibitor of 7.5 % RET.

On to “OKT4 (mouse monoclonal antibody that binds CD4, Ortho Diagnostic Systems)”, for which the % inhibition of RET at 0.2 µg/ml, HeLa-env+ + HeLa-CD4+ cells, cuvette method is 0% and the % inhibition of RET at 2.0 µg/ml, HeLa-env+ + HeLa-CD4+ cells, cuvette method is 0%.

“HIV-1LAI gp120/gp41 expressed on HeLa cells (HeLa-envLAI+) (from UniProt P03377 33-861; P03377 33-861)” had a % RET, fusion of HeLa-envLAI+ with C8166 cells, no inhibitor of 13 % RET and a % RET, fusion of HeLa-envLAI+ with HeLa-CD4+ cells, no inhibitor of 7.3 % RET.

The values are drawn from US7862994.
